Measured values as given in IntAct's records for PubMed 20142502.

B1: Harmonin (Homo sapiens), Q9Y6N9 (parent)
chain: MDRKVAREFRHKVDFLIENDAEKDYLYDVLRMYHQTMDVAVLVGDLKLVINEPSRLPLFDAIRPLIPLKHQVEYDQLTPRRSRKLKEVRLDRLHPEGLGLSVRGGLEFGCGLFISHLIKGGQADSVGLQVGDEIVRINGYSISSCTHEEVINLIRTKKTVSIKVRHIGLIPVKSSPDEPLTWQYVDQFVSESGGVRGSLGSPGNRENKEKKVFISLVGSRGLGCSISSGPIQKPGIFISHVKPGSLSAEVGLEIGDQIVEVNGVDFSNLDHKEAVNVLKSSRSLTISIVAAAGRELFMTDRERLAEARQRELQRQELLMQKRLAMESNKILQEQQEMERQRRKEIAQKAAEENERYRKEMEQIVEEEEKFKKQWEEDWGSKEQLLLPKTITAEVHPVPLRKPKYDQGVEPELEPADDLDGGTEEQGEQDFRKYEEGFDPYSMFTPEQIMGKDVRLLRIKKEGSLDLALEGGVDSPIGKVVVSAVYERGAAERHGGIVKGDEIMAINGKIVTDYTLAEAEAALQKAWNQGGDWIDLVVAVCPPKEYDDELTFF
partner: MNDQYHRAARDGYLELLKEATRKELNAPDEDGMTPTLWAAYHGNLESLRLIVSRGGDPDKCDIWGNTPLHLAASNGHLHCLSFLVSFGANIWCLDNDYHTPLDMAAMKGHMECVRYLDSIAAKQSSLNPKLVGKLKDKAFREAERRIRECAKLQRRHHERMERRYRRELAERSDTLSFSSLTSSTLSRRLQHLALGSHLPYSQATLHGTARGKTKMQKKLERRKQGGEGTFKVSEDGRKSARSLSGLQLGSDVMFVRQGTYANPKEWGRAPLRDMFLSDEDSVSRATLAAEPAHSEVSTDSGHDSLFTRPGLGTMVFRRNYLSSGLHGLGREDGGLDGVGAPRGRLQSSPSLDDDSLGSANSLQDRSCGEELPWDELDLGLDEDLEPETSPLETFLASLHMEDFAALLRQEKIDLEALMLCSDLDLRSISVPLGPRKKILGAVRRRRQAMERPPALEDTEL
B2: pre-mRNA splicing regulator USH1G (Homo sapiens), Q495M9 (parent)
chain: B1 partner
partner: B1 chain

Variants of: B1
Conditions: with ush1g_human USH1G, Q495M9

effect of a mutation on the interaction | Variant
decreasing interaction | MDRKVAREFRHKVDFLIENDAEKDYLYDVLRMYHQTMDVAVLVGDLKLVINEPSRLPLFDAIRPLIPLKHQVEYDQLTPRRSRKLKEVRLDRLHPEGLGLSVHGGLEFGCGLFISHLIKGGQADSVGLQVGDEIVRINGYSISSCTHEEVINLIRTKKTVSIKVRHIGLIPVKSSPDEPLTWQYVDQFVSESGGVRGSLGSPGNRENKEKKVFISLVGSRGLGCSISSGPIQKPGIFISHVKPGSLSAEVGLEIGDQIVEVNGVDFSNLDHKEAVNVLKSSRSLTISIVAAAGRELFMTDRERLAEARQRELQRQELLMQKRLAMESNKILQEQQEMERQRRKEIAQKAAEENERYRKEMEQIVEEEEKFKKQWEEDWGSKEQLLLPKTITAEVHPVPLRKPKYDQGVEPELEPADDLDGGTEEQGEQDFRKYEEGFDPYSMFTPEQIMGKDVRLLRIKKEGSLDLALEGGVDSPIGKVVVSAVYERGAAERHGGIVKGDEIMAINGKIVTDYTLAEAEAALQKAWNQGGDWIDLVVAVCPPKEYDDELTFF [R103H]

Variants of: B2
Conditions: with ush1c_human USH1C, Q9Y6N9

effect of a mutation on the interaction | Variant
decreasing interaction | MNDQYHRAARDGYLELLKEATRKELNAPDEDGMTPTLWAAYHGNLESLRLIVSRGGDPDKCDIWGNTPLHLAASNGHLHCLSFLVSFGANIWCLDNDYHTPLDMAAMKGHMECVRYLDSIAAKQSSLNPKLVGKLKDKAFREAERRIRECAKLQRRHHERMERRYRRELAERSDTLSFSSLTSSTLSRRLQHLALGSHLPYSQATLHGTARGKTKMQKKLERRKQGGEGTFKVSEDGRKSARSLSGLQLGSDVMFVRQGTYANPKEWGRAPLRDMFLSDEDSVSRATLAAEPAHSEVSTDSGHDSLFTRPGLGTMVFRRNYLSSGLHGLGREDGGLDGVGAPRGRLQSSPSLDDDSLGSANSLQDRSCGEELPWDELDLGLDEDLEPETSPLETFLASLHMEDFAALLRQEKIDLEALMLCSDLDLRSISVPLGPRKKILGAVRRRRQAMERPPALEVTEL [D458V]
